# B1: peptide 8 (amino acids 71-85 of CSP) (peptide)
# peptide: SLGENDDGNNEDNEK
# B2: peptide 10 (amino acids 91-106 of CSP) (peptide)
# peptide: HKKLKQPADGNPDP
# B3: monoclonal antibody (mAb) 5D5 (antibody, V domains shown)
# VH: QVHLQQSGGEVARPGASVKLSCKASGYTFTGYGLSWVKQRTGQGLEWIGEIYPRSGNTYYNEKFKGKATLTADKSSSTAYMELRSLTSEDSAVYFCARSWGNSSFVYWGQGTLVTVSA
# VL: SIVMTQTPKFLLVSAGDRVTITCKASQSVTNDVTWYQQKPGQSPKLLIYYASNRYTGVPDRFTGSGYGTDFTFTISTVQAEDLAVYFCQQDYSSPFTFGSGTKLEIKR
# notes: Murine IgG1/kappa hybridoma antibody; also called 5D5 mAb; MRA-1242
# How the values were obtained:
# [1] = biological target: B3; experiment: competitive ELISA, competitor against rCSP for binding to mAb 5D5; row 0.001 µg/ml
# [2] = biological target: B3; experiment: competitive ELISA, competitor against rCSP for binding to mAb 5D5; row 0.01 µg/ml
# [3] = biological target: B1; experiment: indirect ELISA, 15-mer peptide mapping
# [4] = biological target: B2; experiment: indirect ELISA, 15-mer peptide mapping
Binder,ELISA signal (name and unit not given) [1],ELISA signal (name and unit not given) [2],binding result [3],binding result [4]
DGNNEDNEK [peptide A],1.05,3.57,,
NEDNEKLRK [peptide B],1.03,3.51,,
NEKLRKPKHK [peptide C],0.976,3.49,,
LRKPKHKKLKQ [peptide D],0.989,3.45,,
PKHKKLKQPAD [peptide E],0.925,3.39,,
B1,0.952,3.35,,
EDNEKLRKPKHKKLK [peptide 9 (amino acids 81-95 of CSP)],0.19,0.246,,
B2,0.92,3.34,,
B3,,,no binding,no binding

# Reference: patent publication US20160176955A1 (LEIDOS, published 2016)
